Test results reported in US20240018502A1.

B1: MTSP-1 protease domain I41G/F97S/F99L/C122S/G151N/Q175I/Q192T (enzyme)
chain: VVGGTDADEGEWPWQVSLHALGQGHGCGASLISPNWLVSAAHCYIDDRGFRYSDPTQWTAFLGLHDQSQRSAPGVQERRLKRIISHPFFNDSTLDYDIALLELEKPAEYSSMVRPISLPDASHVFPAGKAIWVTGWGHTQYGGTNALILQKGEIRVINQTTCENLLPQIITPRMMCVGFLSGGVDSCTGDSGGPLSSVEADGRIFQAGVVSWGDGCAQRNKPGVYTRLPLFRDWIKENTGV
B2: MTSP-1 protease domain F97R/ins97aT/T98V/C122S/Q175M/Q192T/D217S (enzyme)
chain: VVGGTDADEGEWPWQVSLHALGQGHICGASLISPNWLVSAAHCYIDDRGFRYSDPTQWTAFLGLHDQSQRSAPGVQERRLKRIISHPFFNDRTVFDYDIALLELEKPAEYSSMVRPISLPDASHVFPAGKAIWVTGWGHTQYGGTGALILQKGEIRVINQTTCENLLPQMITPRMMCVGFLSGGVDSCTGDSGGPLSSVEADGRIFQAGVVSWGSGCAQRNKPGVYTRLPLFRDWIKENTGV
B3: MTSP-1 protease domain F97V/ins97aH/T98R/F99L/C122S/Q175R/Q192G/D217S (enzyme)
chain: VVGGTDADEGEWPWQVSLHALGQGHICGASLISPNWLVSAAHCYIDDRGFRYSDPTQWTAFLGLHDQSQRSAPGVQERRLKRIISHPFFNDVHRLDYDIALLELEKPAEYSSMVRPISLPDASHVFPAGKAIWVTGWGHTQYGGTGALILQKGEIRVINQTTCENLLPQRITPRMMCVGFLSGGVDSCGGDSGGPLSSVEADGRIFQAGVVSWGSGCAQRNKPGVYTRLPLFRDWIKENTGV
B4: MTSP-1 protease domain F97Q/F99L/C122S/Q175N/Q192V/D217G (enzyme)
chain: VVGGTDADEGEWPWQVSLHALGQGHICGASLISPNWLVSAAHCYIDDRGFRYSDPTQWTAFLGLHDQSQRSAPGVQERRLKRIISHPFFNDQTLDYDIALLELEKPAEYSSMVRPISLPDASHVFPAGKAIWVTGWGHTQYGGTGALILQKGEIRVINQTTCENLLPQNITPRMMCVGFLSGGVDSCVGDSGGPLSSVEADGRIFQAGVVSWGGGCAQRNKPGVYTRLPLFRDWIKENTGV
B5: MTSP-1 Q38H/I41S/D60bT/F60eS/Y60gW/F97G/ins97aV/T98P/F99L/C122S/G151H/Q175L/Q192D (enzyme)
chain: VVGGTDADEGEWPWQVSLHALGHGHSCGASLISPNWLVSAAHCYIDTRGSRWSDPTQWTAFLGLHDQSQRSAPGVQERRLKRIISHPFFNDGVPLDYDIALLELEKPAEYSSMVRPISLPDASHVFPAGKAIWVTGWGHTQYGGTHALILQKGEIRVINQTTCENLLPQLITPRMMCVGFLSGGVDSCDGDSGGPLSSVEADGRIFQAGVVSWGDGCAQRNKPGVYTRLPLFRDWIKENTGV
B6: MTSP-1 protease domain F97L/ins97aM/T98N/F99L/C122S/Q175T/Q192T/D217S (enzyme)
chain: VVGGTDADEGEWPWQVSLHALGQGHICGASLISPNWLVSAAHCYIDDRGFRYSDPTQWTAFLGLHDQSQRSAPGVQERRLKRIISHPFFNDLMNLDYDIALLELEKPAEYSSMVRPISLPDASHVFPAGKAIWVTGWGHTQYGGTGALILQKGEIRVINQTTCENLLPQTITPRMMCVGFLSGGVDSCTGDSGGPLSSVEADGRIFQAGVVSWGSGCAQRNKPGVYTRLPLFRDWIKENTGV
B7: MTSP-1 protease domain F97S/ins97aN/T98G/F99M/C122S/Q175T/Q192T/D217S (enzyme)
chain: VVGGTDADEGEWPWQVSLHALGQGHICGASLISPNWLVSAAHCYIDDRGFRYSDPTQWTAFLGLHDQSQRSAPGVQERRLKRIISHPFFNDSNGMDYDIALLELEKPAEYSSMVRPISLPDASHVFPAGKAIWVTGWGHTQYGGTGALILQKGEIRVINQTTCENLLPQTITPRMMCVGFLSGGVDSCTGDSGGPLSSVEADGRIFQAGVVSWGSGCAQRNKPGVYTRLPLFRDWIKENTGV
B8: MTSP-1 protease domain I41T/F97H/F99L/C122S/G151N/Q175H/Q192V/D217L (enzyme)
chain: VVGGTDADEGEWPWQVSLHALGQGHTCGASLISPNWLVSAAHCYIDDRGFRYSDPTQWTAFLGLHDQSQRSAPGVQERRLKRIISHPFFNDHTLDYDIALLELEKPAEYSSMVRPISLPDASHVFPAGKAIWVTGWGHTQYGGTNALILQKGEIRVINQTTCENLLPQHITPRMMCVGFLSGGVDSCVGDSGGPLSSVEADGRIFQAGVVSWGLGCAQRNKPGVYTRLPLFRDWIKENTGV
B9: MTSP-1 protease domain I41R/F97T/F99L/C122S/G151N/Q175T/Q192T/D217I (enzyme)
chain: VVGGTDADEGEWPWQVSLHALGQGHRCGASLISPNWLVSAAHCYIDDRGFRYSDPTQWTAFLGLHDQSQRSAPGVQERRLKRIISHPFFNDTTLDYDIALLELEKPAEYSSMVRPISLPDASHVFPAGKAIWVTGWGHTQYGGTNALILQKGEIRVINQTTCENLLPQTITPRMMCVGFLSGGVDSCTGDSGGPLSSVEADGRIFQAGVVSWGIGCAQRNKPGVYTRLPLFRDWIKENTGV
B10: MTSP-1 protease domain I41E/F97V/F99L/C122S/G151N/Q175L/Q192S/D217H (enzyme)
chain: VVGGTDADEGEWPWQVSLHALGQGHECGASLISPNWLVSAAHCYIDDRGFRYSDPTQWTAFLGLHDQSQRSAPGVQERRLKRIISHPFFNDVTLDYDIALLELEKPAEYSSMVRPISLPDASHVFPAGKAIWVTGWGHTQYGGTNALILQKGEIRVINQTTCENLLPQLITPRMMCVGFLSGGVDSCSGDSGGPLSSVEADGRIFQAGVVSWGHGCAQRNKPGVYTRLPLFRDWIKENTGV
B11: MTSP-1 protease domain I41D/F97R/F99L/C122S/G151Q/Q175R/Q192V/D217L (enzyme)
chain: VVGGTDADEGEWPWQVSLHALGQGHDCGASLISPNWLVSAAHCYIDDRGFRYSDPTQWTAFLGLHDQSQRSAPGVQERRLKRIISHPFFNDRTLDYDIALLELEKPAEYSSMVRPISLPDASHVFPAGKAIWVTGWGHTQYGGTQALILQKGEIRVINQTTCENLLPQRITPRMMCVGFLSGGVDSCVGDSGGPLSSVEADGRIFQAGVVSWGLGCAQRNKPGVYTRLPLFRDWIKENTGV
B12: MTSP-1 protease domain I41E/F97R/F99L/C122S/G151Q/Q175G/Q192T/D217V (enzyme)
chain: VVGGTDADEGEWPWQVSLHALGQGHECGASLISPNWLVSAAHCYIDDRGFRYSDPTQWTAFLGLHDQSQRSAPGVQERRLKRIISHPFFNDRTLDYDIALLELEKPAEYSSMVRPISLPDASHVFPAGKAIWVTGWGHTQYGGTQALILQKGEIRVINQTTCENLLPQGITPRMMCVGFLSGGVDSCTGDSGGPLSSVEADGRIFQAGVVSWGVGCAQRNKPGVYTRLPLFRDWIKENTGV
B13: MTSP-1 protease domain I41D/F97T/F99L/C122S/G151N/Q175S/Q192T/D217A (enzyme)
chain: VVGGTDADEGEWPWQVSLHALGQGHDCGASLISPNWLVSAAHCYIDDRGFRYSDPTQWTAFLGLHDQSQRSAPGVQERRLKRIISHPFFNDTTLDYDIALLELEKPAEYSSMVRPISLPDASHVFPAGKAIWVTGWGHTQYGGTNALILQKGEIRVINQTTCENLLPQSITPRMMCVGFLSGGVDSCTGDSGGPLSSVEADGRIFQAGVVSWGAGCAQRNKPGVYTRLPLFRDWIKENTGV
B14: MTSP-1 protease domain I41E/F97A/F99M/C122S/G151N/Q175R/Q192S/D217E (enzyme)
chain: VVGGTDADEGEWPWQVSLHALGQGHECGASLISPNWLVSAAHCYIDDRGFRYSDPTQWTAFLGLHDQSQRSAPGVQERRLKRIISHPFFNDATMDYDIALLELEKPAEYSSMVRPISLPDASHVFPAGKAIWVTGWGHTQYGGTNALILQKGEIRVINQTTCENLLPQRITPRMMCVGFLSGGVDSCSGDSGGPLSSVEADGRIFQAGVVSWGEGCAQRNKPGVYTRLPLFRDWIKENTGV
B15: MTSP-1 protease domain I41G/F99L/C122S/Q175I/Q192T/D217T (enzyme)
chain: VVGGTDADEGEWPWQVSLHALGQGHGCGASLISPNWLVSAAHCYIDDRGFRYSDPTQWTAFLGLHDQSQRSAPGVQERRLKRIISHPFFNDFTLDYDIALLELEKPAEYSSMVRPISLPDASHVFPAGKAIWVTGWGHTQYGGTGALILQKGEIRVINQTTCENLLPQIITPRMMCVGFLSGGVDSCTGDSGGPLSSVEADGRIFQAGVVSWGTGCAQRNKPGVYTRLPLFRDWIKENTGV
B16: MTSP-1 Q38H/I41S/D60bT/F60eS/Y60gW/D96K/ins97aV/T98P/F99L/C122S/G151H/Q175L/Q192D (enzyme)
chain: VVGGTDADEGEWPWQVSLHALGHGHSCGASLISPNWLVSAAHCYIDTRGSRWSDPTQWTAFLGLHDQSQRSAPGVQERRLKRIISHPFFNKFVPLDYDIALLELEKPAEYSSMVRPISLPDASHVFPAGKAIWVTGWGHTQYGGTHALILQKGEIRVINQTTCENLLPQLITPRMMCVGFLSGGVDSCDGDSGGPLSSVEADGRIFQAGVVSWGDGCAQRNKPGVYTRLPLFRDWIKENTGV
B17: MTSP-1 protease domain I41G/F99L/C122S/G151N/Q192T/D217T (enzyme)
chain: VVGGTDADEGEWPWQVSLHALGQGHGCGASLISPNWLVSAAHCYIDDRGFRYSDPTQWTAFLGLHDQSQRSAPGVQERRLKRIISHPFFNDFTLDYDIALLELEKPAEYSSMVRPISLPDASHVFPAGKAIWVTGWGHTQYGGTNALILQKGEIRVINQTTCENLLPQQITPRMMCVGFLSGGVDSCTGDSGGPLSSVEADGRIFQAGVVSWGTGCAQRNKPGVYTRLPLFRDWIKENTGV
B18: MTSP-1 protease domain I41G/F99L/C122S/G151N/Q175I/Q192T (enzyme)
chain: VVGGTDADEGEWPWQVSLHALGQGHGCGASLISPNWLVSAAHCYIDDRGFRYSDPTQWTAFLGLHDQSQRSAPGVQERRLKRIISHPFFNDFTLDYDIALLELEKPAEYSSMVRPISLPDASHVFPAGKAIWVTGWGHTQYGGTNALILQKGEIRVINQTTCENLLPQIITPRMMCVGFLSGGVDSCTGDSGGPLSSVEADGRIFQAGVVSWGDGCAQRNKPGVYTRLPLFRDWIKENTGV
B19: MTSP-1 protease domain F97V/F99L/C122S/G151N/Q175L/Q192S/D217H (enzyme)
chain: VVGGTDADEGEWPWQVSLHALGQGHICGASLISPNWLVSAAHCYIDDRGFRYSDPTQWTAFLGLHDQSQRSAPGVQERRLKRIISHPFFNDVTLDYDIALLELEKPAEYSSMVRPISLPDASHVFPAGKAIWVTGWGHTQYGGTNALILQKGEIRVINQTTCENLLPQLITPRMMCVGFLSGGVDSCSGDSGGPLSSVEADGRIFQAGVVSWGHGCAQRNKPGVYTRLPLFRDWIKENTGV
B20: MTSP-1 protease domain I41E/F99L/C122S/G151N/Q175L/Q192S/D217H (enzyme)
chain: VVGGTDADEGEWPWQVSLHALGQGHECGASLISPNWLVSAAHCYIDDRGFRYSDPTQWTAFLGLHDQSQRSAPGVQERRLKRIISHPFFNDFTLDYDIALLELEKPAEYSSMVRPISLPDASHVFPAGKAIWVTGWGHTQYGGTNALILQKGEIRVINQTTCENLLPQLITPRMMCVGFLSGGVDSCSGDSGGPLSSVEADGRIFQAGVVSWGHGCAQRNKPGVYTRLPLFRDWIKENTGV
B21: MTSP-1 protease domain I41E/F97V/F99L/C122S/Q175L/Q192S/D217H (enzyme)
chain: VVGGTDADEGEWPWQVSLHALGQGHECGASLISPNWLVSAAHCYIDDRGFRYSDPTQWTAFLGLHDQSQRSAPGVQERRLKRIISHPFFNDVTLDYDIALLELEKPAEYSSMVRPISLPDASHVFPAGKAIWVTGWGHTQYGGTGALILQKGEIRVINQTTCENLLPQLITPRMMCVGFLSGGVDSCSGDSGGPLSSVEADGRIFQAGVVSWGHGCAQRNKPGVYTRLPLFRDWIKENTGV

Target: plasma purified human complement protein C3 (human) (UniProt P01024)
Sequence (P01024 23-667, chain 1 of 2): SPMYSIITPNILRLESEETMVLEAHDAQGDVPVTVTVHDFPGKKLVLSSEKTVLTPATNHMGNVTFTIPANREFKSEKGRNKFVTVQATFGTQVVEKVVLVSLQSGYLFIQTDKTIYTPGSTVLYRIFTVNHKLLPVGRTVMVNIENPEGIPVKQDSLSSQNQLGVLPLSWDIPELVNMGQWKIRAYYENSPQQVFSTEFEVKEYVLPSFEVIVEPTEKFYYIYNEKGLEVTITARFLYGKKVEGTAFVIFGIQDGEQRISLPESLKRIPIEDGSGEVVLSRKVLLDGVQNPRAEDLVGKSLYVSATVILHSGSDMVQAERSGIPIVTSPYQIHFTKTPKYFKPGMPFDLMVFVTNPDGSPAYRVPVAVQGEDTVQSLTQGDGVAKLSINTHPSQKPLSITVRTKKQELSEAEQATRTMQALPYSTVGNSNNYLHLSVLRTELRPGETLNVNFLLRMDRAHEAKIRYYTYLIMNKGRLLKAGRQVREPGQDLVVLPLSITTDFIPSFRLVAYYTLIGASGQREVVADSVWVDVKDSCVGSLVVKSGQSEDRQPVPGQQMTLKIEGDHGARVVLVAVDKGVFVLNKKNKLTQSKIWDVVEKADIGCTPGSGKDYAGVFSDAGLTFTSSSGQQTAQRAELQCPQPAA
Sequence (P01024 672-1663, chain 2 of 2): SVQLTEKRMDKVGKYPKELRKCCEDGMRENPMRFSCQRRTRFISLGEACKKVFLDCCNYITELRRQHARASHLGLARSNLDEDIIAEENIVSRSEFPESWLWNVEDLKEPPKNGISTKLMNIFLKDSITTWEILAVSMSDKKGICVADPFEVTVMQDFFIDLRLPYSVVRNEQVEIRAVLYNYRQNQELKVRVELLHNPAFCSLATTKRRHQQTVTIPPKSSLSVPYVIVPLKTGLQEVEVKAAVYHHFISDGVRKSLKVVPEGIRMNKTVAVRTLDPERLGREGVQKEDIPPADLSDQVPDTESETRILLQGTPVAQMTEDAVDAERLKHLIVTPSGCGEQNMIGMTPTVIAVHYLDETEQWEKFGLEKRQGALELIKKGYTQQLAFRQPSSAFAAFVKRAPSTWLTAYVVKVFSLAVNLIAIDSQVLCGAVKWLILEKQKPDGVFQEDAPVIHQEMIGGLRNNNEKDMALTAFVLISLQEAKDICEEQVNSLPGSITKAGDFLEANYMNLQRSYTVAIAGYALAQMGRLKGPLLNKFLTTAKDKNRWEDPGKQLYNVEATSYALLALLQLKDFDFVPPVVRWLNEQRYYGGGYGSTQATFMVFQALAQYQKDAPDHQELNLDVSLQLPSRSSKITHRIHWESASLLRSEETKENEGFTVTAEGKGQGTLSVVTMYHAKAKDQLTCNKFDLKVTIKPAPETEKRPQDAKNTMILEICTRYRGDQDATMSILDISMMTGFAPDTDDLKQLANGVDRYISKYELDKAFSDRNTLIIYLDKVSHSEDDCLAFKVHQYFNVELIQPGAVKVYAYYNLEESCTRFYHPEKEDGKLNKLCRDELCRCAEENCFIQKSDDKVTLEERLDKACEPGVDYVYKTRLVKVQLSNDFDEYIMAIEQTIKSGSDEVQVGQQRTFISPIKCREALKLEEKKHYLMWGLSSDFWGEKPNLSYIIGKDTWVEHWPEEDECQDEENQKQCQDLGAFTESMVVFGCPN
Assay: cell-based or functional assay

Row | Binder | EC50 hC3 cleavage [nM] | EC50 of hC3 cleavage [nM]
1 | B1 | 97.7 | –
2 | B2 | 42.2 | –
3 | B3 | 905 | –
4 | B4 | 3670 | –
5 | B5 | – | 169
6 | B6 | 256 | –
7 | B7 | 2400 | –
8 | B8 | 131 | –
9 | B9 | 159 | –
10 | B10 | 49.4 | –
11 | B11 | 88 | –
12 | B12 | 13 | –
13 | B13 | 70.9 | –
14 | B14 | 485 | –
15 | B15 | 81.8 | –
16 | B16 | – | 12
17 | B17 | 44.7 | –
18 | B18 | 51.6 | –
19 | B19 | 91.6 | –
20 | B20 | 27.1 | –
21 | B21 | 44.3 | –
